Test results published in patent US20240398906A1 (YEDA RESEARCH AND DEVELOPMENT, published 2024).
Several values for one entry are separate records, joined by “and”; a condition that tells them apart may be missing. Equal values may be shown once.

Key:
[1] = target: T1, recombinant HSP70 (UniProt P0DMV8 1-641, limits assumed); experiment: ELISA, plate coated with recombinant HSP70, detection with anti-human peroxidase antibody
T1 construct: Purified on a HisTrap column; also called heat shock protein 70
Procedure: (§1) ELISA binding assay: A ninety-six-well plate (Nunc) was coated with LOX-catalytic domain, HSP70 or BSA at 10 μg/ml. After blocking with 2% BSA in PBS, the plate was incubated with the antibodies for 1 h at 37° C. Bound antibodies were detected by peroxidase-conjugated antibody goat anti-human (Jackson ImmunoResearch). EC₅₀ was calculated with GraphPad Prism from […] curve fitting analysis.

[2] = target: T2, recombinant catalytic domain of human LOX (169-417) (human, UniProt P28300 169-417); experiment: ELISA, plate coated with LOX catalytic domain, detection with anti-human peroxidase antibody
T2 construct: also called LOX-catalytic domain; recombinant LOX
T2 sequence: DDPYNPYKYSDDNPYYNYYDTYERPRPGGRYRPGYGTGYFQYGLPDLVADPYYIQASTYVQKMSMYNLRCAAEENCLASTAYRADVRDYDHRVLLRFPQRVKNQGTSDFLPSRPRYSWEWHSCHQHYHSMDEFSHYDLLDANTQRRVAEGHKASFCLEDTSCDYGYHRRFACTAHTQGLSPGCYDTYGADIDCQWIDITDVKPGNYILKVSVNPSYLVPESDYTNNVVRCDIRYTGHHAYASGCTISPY
Procedure: as §1

[3] = target: T2, recombinant catalytic domain of human …; experiment: dissociation constant against LOX; microscale thermophoresis according to paragraph 89
[4] = target: T2, recombinant catalytic domain of human …; experiment: binding affinity against LOX; ELISA according to paragraph 88

T1 sequence (P0DMV8 whole entry): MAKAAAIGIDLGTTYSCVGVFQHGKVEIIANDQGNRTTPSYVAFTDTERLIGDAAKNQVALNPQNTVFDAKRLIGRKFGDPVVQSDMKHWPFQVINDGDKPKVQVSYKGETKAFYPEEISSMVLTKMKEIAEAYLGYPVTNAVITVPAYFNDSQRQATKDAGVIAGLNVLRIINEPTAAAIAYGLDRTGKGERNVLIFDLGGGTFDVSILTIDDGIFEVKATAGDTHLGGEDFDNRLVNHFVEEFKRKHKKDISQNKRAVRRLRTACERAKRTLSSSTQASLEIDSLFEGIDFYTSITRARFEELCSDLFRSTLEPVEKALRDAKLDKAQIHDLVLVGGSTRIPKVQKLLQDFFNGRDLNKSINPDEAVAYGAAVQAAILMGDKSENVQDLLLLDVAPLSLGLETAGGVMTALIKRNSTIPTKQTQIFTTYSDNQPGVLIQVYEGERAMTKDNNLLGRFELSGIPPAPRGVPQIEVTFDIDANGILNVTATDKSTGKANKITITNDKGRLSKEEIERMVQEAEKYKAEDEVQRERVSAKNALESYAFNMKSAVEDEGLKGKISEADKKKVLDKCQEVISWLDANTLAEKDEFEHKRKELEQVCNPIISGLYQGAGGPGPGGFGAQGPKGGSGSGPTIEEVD

B1: AS1 (glycosylated LOX-PP fused to human IgG1 Fc) (Fc fusion)
chain: APPAAGQQQPPREPPAAPGAWRQQIQWENNGQVFSLLSLGSQYQPQRRRDPGAAVPGAANASAQQPRTPILLIRDNRTAAARTRTAGSSGVTAGRPRPTARHWFQAGYSTSRAREAGASRAENQTAPGEVPALSNLRPPSRVDGMVG
modifications: N-glycosylated on N81, N97 and N144 (precursor numbering; positions 60, 76 and 123 of the piece). Disulfide-linked dimer through the Fc hinge.
notes: also called AS1 decoy; not shown: Human IgG1 Fc (hinge-CH2-CH3), its orientation relative to LOX-PP and any linker
Question: What does the source list for B1?
Answer: EC50 [1]: 41 nM; EC50 [2]: 43 nM

B2: Fc-LPD (Fc fusion)
chain: B1 chain
Question: B2 was tested. Which Kd [3] did it give?
Answer: 32 nM

Question: And the EC50 [4]?
Answer: 40 nM and 43 nM
